How the values were obtained:
HeLa Kyoto [1] = test: solubility change mitosis vs G1/S (difference of NP-40 vs SDS log2 ratios) (log2 ratio difference); higher = more soluble in mitosis
HeLa Kyoto [2] = test: melting temperature (median over replicates), in situ; higher = more thermally stable
HeLa Kyoto [3] = test: solubility in G1/S (NP-40 vs SDS abundance) (log2 ratio); higher = more soluble; settings: cell cycle stage: G1/S
HeLa Kyoto [4] = test: thermal stability score vs G1/S (z-score of summed log2 fold changes over temperatures); higher = more thermally stable than in G1/S
[5] = cell cycle stage: early G1 (4.5 h after nocodazole release)
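For melting temperature (median over replicates), in situ in this document: HeLa Kyoto cells synchronized by double thymidine or nocodazole block, proteins quantified by TMT10plex mass spectrometry, three independent biological replicates.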
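For solubility change mitosis vs G1/S (difference of NP-40 vs SDS log2 ratios) in this document: synchronized HeLa Kyoto cells (double thymidine block for G1/S, nocodazole release for mitosis), protein amounts in NP-40 versus SDS lysates quantified by mass spectrometry, three biological replicates.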
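For solubility in G1/S (NP-40 vs SDS abundance) in this document: HeLa Kyoto cells arrested at G1/S by double thymidine block, proteins quantified by TMT10plex mass spectrometry in mild NP-40 versus SDS extracts, three biological replicates.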
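For thermal stability score vs G1/S (z-score of summed log2 fold changes over temperatures) in this document: synchronized HeLa Kyoto cells, proteins quantified by TMT10plex mass spectrometry, three biological replicates, mitosis taken 0.5 h after nocodazole release, G1/S directly after double thymidine block.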

Sequence | solubility change mitosis (log2) (HeLa Kyoto [1]) | melting temperature (HeLa Kyoto [2]; cell cycle stage: G1/S) | melting temperature (HeLa Kyoto [2]; cell cycle stage: mitosis) | solubility in G1/S (log2) (HeLa Kyoto [3]) | thermal stability score (HeLa Kyoto [4]; [5]) | thermal stability score (HeLa Kyoto [4]; cell cycle stage: mitosis)
MDVLAEEFGNLTPEQLAAPIPTVEEKWRLLPAFLKVKGLVKQHIDSFNYFINVEIKKIMKANEKVTSDADPMWYLKYLNIYVGLPDVEESFNVTRPVSPHECRLRDMTYSAPITVDIEYTRGSQRIIRNALPIGRMPIMLRSSNCVLTGKTPAEFAKLNECPLDPGGYFIVKGVEKVILIQEQLSKNRIIVEADRKGAVGASVTSSTHEKKSRTNMAVKQGRFYLRHNTLSEDIPIVIIFKAMGVESDQEIVQMIGTEEHVMAAFGPSLEECQKAQIFTQMQALKYIGNKVRRQRMWGGGPKKTKIEEARELLASTILTHVPVKEFNFRAKCIYTAVMVRRVILAQGDNKVDDRDYYGNKRLELAGQLLSLLFEDLFKKFNSEMKKIADQVIPKQRAAQFDVVKHMRQDQITNGMVNAISTGNWSLKRFKMDRQGVTQVLSRLSYISALGMMTRISSQFEKTRKVSGPRSLQPSQWGMLCPSDTPEGEACGLVKNLALMTHITTDMEDGPIVKLASNLGVEDVNLLCGEELSYPNVFLVFLNGNILGVIRDHKKLVNTFRLMRRAGYINEFVSISTNLTDRCVYISSDGGRLCRPYIIVKKQKPAVTNKHMEELAQGYRNFEDFLHESLVEYLDVNEENDCNIALYEHTINKDTTHLEIEPFTLLGVCAGLIPYPHHNQSPRNTYQCAMGKQAMGTIGYNQRNRIDTLMYLLAYPQKPMVKTKTIELIEFEKLPAGQNATVAVMSYSGYDIEDALVLNKASLDRGFGRCLVYKNAKCTLKRYTNQTFDKVMGPMLDAATRKPIWRHEILDADGICSPGEKVENKQVLVNKSMPTVTQIPLEGSNVPQQPQYKDVPITYKGATDSYIEKVMISSNAEDAFLIKMLLRQTRRPEIGDKFSSRHGQKGVCGLIVPQEDMPFCDSGICPDIIMNPHGFPSRMTVGKLIELLAGKAGVLDGRFHYGTAFGGSKVKDVCEDLVRHGYNYLGKDYVTSGITGEPLEAYIYFGPVYYQKLKHMVLDKMHARARGPRAVLTRQPTEGRSRDGGLRLGEMERDCLIGYGASMLLLERLMISSDAFEVDVCGQCGLLGYSGWCHYCKSSCHVSSLRIPYACKLLFQELQSMNIIPRLKLSKYNE [POLR3B] | -0.161 | 48.9 °C | 49.6 °C | -0.184 | 0.664 | 1.01
MDVNIAPLRAWDDFFPGSDRFARPDFRDISKWNNRVVSNLLYYQTNYLVVAAMMISIVGFLSPFNMILGGIVVVLVFTGFVWAAHNKDVLRRMKKRYPTTFVMVVMLASYFLISMFGGVMVFVFGITFPLLLMFIHASLRLRNLKNKLENKMEGIGLKRTPMGIVLDALEQQEEGINRLTDYISKVKE [ARL6IP5] | -0.126 | 56.4 °C | 57.5 °C | -0.0879 | 0.94 | 0.797
MDVTSSSGGGGDPRQIEETKPLLGGDVSAPEGTKMGAVPCRRALLLCNGMRYKLLQEGDIQVCVIRHPRTFLSKILTSKFLRRWEPHHLTLADNSLASATPTGYMENSVSYSAIEDVQLLSWENAPKYCLQLTIPGGTVLLQAANSYLRDQWFHSLQWKKKIYKYKKVLSNPSRWEVVLKEIRTLVDMALTSPLQDDSINQAPLEIVSKLLSENTNLTTQEHENIIVAIAPLLENNHPPPDLCEFFCKHCRERPRSMVVIEVFTPVVQRILKHNMDFGKCPRLRLFTQEYILALNELNAGMEVVKKFIQSMHGPTGHCPHPRVLPNLVAVCLAAIYSCYEEFINSRDNSPSLKEIRNGCQQPCDRKPTLPLRLLHPSPDLVSQEATLSEARLKSVVVASSEIHVEVERTSTAKPALTASAGNDSEPNLIDCLMVSPACSTMSIELGPQADRTLGCYVEILKLLSDYDDWRPSLASLLQPIPFPKEALAHEKFTKELKYVIQRFAEDPRQEVHSCLLSVRAGKDGWFQLYSPGGVACDDDGELFASMVHILMGSCYKTKKFLLSLAENKLGPCMLLALRGNQTMVEILCLMLEYNIIDNNDTQLQIISTLESTDVGKRMYEQLCDRQRELKELQRKGGPTRLTLPSKSTDADLARLLSSGSFGNLENLSLAFTNVTSACAEHLIKLPSLKQLNLWSTQFGDAGLRLLSEHLTMLQVLNLCETPVTDAGLLALSSMKSLCSLNMNSTKLSADTYEDLKAKLPNLKEVDVRYTEAW [CMIP] | -0.224 | 50.5 °C | 48.7 °C | 0.271 | 0.861 | 0.998
MDWVMKHNGPNDASDGTVRLRGLPFGCSKEEIVQFFQGLEIVPNGITLTMDYQGRSTGEAFVQFASKEIAENALGKHKERIGHRYIEIFRSSRSEIKGFYDPPRRLLGQRPGPYDRPIGGRGGYYGAGRGSMYDRMRRGGDGYDGGYGGFDDYGGYNNYGYGNDGFDDRMRDGRGMGGHGYGGAGDASSGFHGGHFVHMRGLPFRATENDIANFFSPLNPIRVHIDIGADGRATGEADVEFVTHEDAVAAMSKDKNNMQHRYIELFLNSTPGGGSGMGGSGMGGYGRDGMDNQGGYGSVGRMGMGNNYSGGYGTPDGLGGYGRGGGGSGGYYGQGGMSGGGWRGMY [HNRNPH3] | 0.282 | 45.4 °C | 47.7 °C | -0.0906 | 3.81 | 9.58
MEAAAVTVTRSATRRRRRQLQGLAAPEAGTQEEQEDQEPRPRRRRPGRSIKDEEEETVFREVVSFSPDPLPVRYYDKDTTKPISFYLSSLEELLAWKPRLEDGFNVALEPLACRQPPLSSQRPRTLLCHDMMGGYLDDRFIQGSVVQTPYAFYHWQCIDVFVYFSHHTVTIPPVGWTNTAHRHGVCVLGTFITEWNEGGRLCEAFLAGDERSYQAVADRLVQITQFFRFDGWLINIENSLSLAAVGNMPPFLRYLTTQLHRQVPGGLVLWYDSVVQSGQLKWQDELNQHNRVFFDSCDGFFTNYNWREEHLERMLGQAGERRADVYVGVDVFARGNVVGGRFDTDKSLELIRKHGFSVALFAPGWVYECLEKKDFFQNQDKFWGRLERYLPTHSICSLPFVTSFCLGMGARRVCYGQEEAVGPWYHLSAQEIQPLFGEHRLGGDGRGWVRTHCCLEDAWHGGSSLLVRGVIPPEVGNVAVRLFSLQAPVPPKIYLSMVYKLEGPTDVTVALELTTGDAGSCHIGGISVLNAETSSRHSLRPLRVPPTKLARWVGRCGRQLSGGWVQHCYEVSLRGCLLLDLLVCFSRPPGSREEESFTCRLGEIQVVDAASLLAPLPQVQAVTISHIRWQPSASEREGPPALLQLSCTLHWSFLLSQVRCFRIHCWGGMSDDSPGRELPRPEMPMFLGLAFATQYRIVDLLVEAAGPGQDRRMEFLVEPVPKEGFRVPQAEWGRAVLLYSAPA [ENGASE] | -0.0912 | 53.6 °C | 53.4 °C | -0.179 | 0.438 | -0.925
MEADASVDMFSKVLEHQLLQTTKLVEEHLDSEIQKLDQMDEDELERLKEKRLQALRKAQQQKQEWLSKGHGEYREIPSERDFFQEVKESENVVCHFYRDSTFRCKILDRHLAILSKKHLETKFLKLNVEKAPFLCERLHIKVIPTLALLKDGKTQDYVVGFTDLGNTDDFTTETLEWRLGSSDILNYSGNLMEPPFQNQKKFGTNFTKLEKKTIRGKKYDSDSDDD [TXNDC9] | 0.0132 | 52.4 °C | 52.7 °C | 0.273 | 1 | 0.636
MEAERGPERRPAERSSPGQTPEEGAQALAEFAALHGPALRASGVPERYWGRLLHKLEHEVFDAGEVFGIMQVEEVEEEEDEAAREVRKQQPNPGNELCYKVIVTRESGLQAAHPNSIFLIDHAWTCRVEHARQQLQQVPGLLHRMANLMGIEFHGELPSTEAVALVLEEMWKFNQTYQLAHGTAEEKMPVWYIMDEFGSRIQHADVPSFATAPFFYMPQQVAYTLLWPLRDLDTGEEVTRDFAYGETDPLIRKCMLLPWAPTDMLDLSSCTPEPPAEHYQAILEENKEKLPLDINPVVHPHGHIFKVYTDVQQVASSLTHPRFTLTQSEADADILFNFSHFKDYRKLSQERPGVLLNQFPCENLLTVKDCLASIARRAGGPEGPPWLPRTFNLRTELPQFVSYFQQRERWGEDNHWICKPWNLARSLDTHVTKSLHSIIRHRESTPKVVSKYIESPVLFLREDVGKVKFDIRYIVLLRSVRPLRLFVYDVFWLRFSNRAFALNDLDDYEKHFTVMNYDPDVVLKQVHCEEFIPEFEKQYPEFPWTDVQAEIFRAFTELFQVACAKPPPLGLCDYPSSRAMYAVDLMLKWDNGPDGRRVMQPQILEVNFNPDCERACRYHPTFFNDVFSTLFLDQPGGCHVTCLV [TTLL12] | -0.125 | 47.6 °C | 48.4 °C | 0.0605 | 2 | 3.92

Source: the supplement of paper PMC5998384
